{"source": "paper PMC9677509", "about": "(Biochemistry, 2017)", "molecules": {"B1": {"name": "human FLAG-tagged wild type histidyl-tRNA synthetase (HARS) (enzyme, UniProt P12081 1-509, looked up)", "chain": "MAERAALEELVKLQGERVRGLKQQKASAELIEEEVAKLLKLKAQLGPDESKQKFVLKTPKGTRDYSPRQMAVREKVFDVIIRCFKRHGAEVIDTPVFELKETLMGKYGEDSKLIYDLKDQGGELLSLRYDLTVPFARYLAMNKLTNIKRYHIAKVYRRDNPAMTRGRYREFYQCDFDIAGNFDPMIPDAECLKIMCEILSSLQIGDFLVKVNDRRILDGMFAICGVSDSKFRTICSSVDKLDKVSWEEVKNEMVGEKGLAPEVADRIGDYVQQHGGVSLVEQLLQDPKLSQNKQALEGLGDLKLLFEYLTLFGIDDKISFDLSLARGLDYYTGVIYEAVLLQTPAQAGEEPLGVGSVAAGGRYDGLVGMFDPKGRKVPCVGLSIGVERIFSIVEQRLEALEEKIRTTETQVLVASAQKKLLEERLKLVSELWDAGIKAELLYKKNPKLLNQLQYCEEAGIPLVAIIGEQELKDGVIKLRSVTSREEVDVRREDLVEEIKRRTGQPLCIC"}, "B2": {"name": "human FLAG-tagged Y454S histidyl-tRNA synthetase (HARS) (enzyme, UniProt P12081 1-509, looked up)", "chain": "B1 chain with Y454S"}}, "key": {"[1]": {"molecular_target": "temperature sensitive HARS with the R362H substitution (UniProt P12081)", "assay": "AUC"}, "AUC": {"molecular_target": "the molecule itself", "assay": "AUC"}}, "note": "Changes are numbered by the printed parent chain. Numbers in names are those of the source.", "data": [{"molecule": "temperature sensitive HARS with the R362H substitution (from UniProt P12081 1-509) (enzyme)", "values": [{"measurement": "stoichiometry N", "setting": "[1]", "result": 2}]}, {"molecule": "B1", "values": [{"measurement": "stoichiometry N", "setting": "AUC", "result": 2}]}, {"molecule": "B2", "values": [{"measurement": "stoichiometry N", "setting": "AUC", "result": 2}]}]}
